This note sets out measurements from patent US20210340268A1 (GENERAL HOSPITAL, published 2021).

The Kd is the concentration at which binding is half-saturated. For orientation: koff means the first-order rate constant of dissociation. The term kon denotes the second-order rate constant of association.

Assay [1] has as its target T1, recombinant human TNFR2 (human tumor necrosis factor receptor 2) (human, UniProt P20333 23-257).
T1 sequence: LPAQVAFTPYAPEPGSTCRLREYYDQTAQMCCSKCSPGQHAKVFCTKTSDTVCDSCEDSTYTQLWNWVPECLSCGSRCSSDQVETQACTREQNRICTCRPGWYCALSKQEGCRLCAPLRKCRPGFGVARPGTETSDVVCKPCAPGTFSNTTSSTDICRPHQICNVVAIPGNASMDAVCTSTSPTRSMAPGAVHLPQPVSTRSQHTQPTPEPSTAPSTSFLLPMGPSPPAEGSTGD
The experiment in a line: SPR (Biacore 3000), biotinylated antibody captured on streptavidin, recombinant human TNFR2 in solution. How it is done: The affinities of antagonistic TNFR2 antibodies for recombinant human TNFR2 were measured using BIACORE™ Analysis Services (Precision Antibody). Briefly, the antibody was biotinylated at a 5:1 stoichiometric ratio using biotinyl-LC-LC-[…] (Thermo-Fisher) in PBS. Excess biotinylation reagent was removed by centrifugation chromatography and the biotinylated antibody was captured on 3000 RU of streptavidin surface to a level of 100 RU. […] Analysis of the kinetics of antigen binding was performed at a flow of 60 μL/min with 2 min injections. Antibodies were injected at a concentration of 1 mg/ml to the final capture of 100 RU. The instrument used was BIACORE™ 3000 with the BioCap chip (GE Healthcare). Double reference method was used for analysis. Reference channel contained the identical level of streptavidin.
In general terms: In SPR one partner is held on a chip, and binding of the other changes the refractive index at the surface.

Assay [2] has as its target T2, epitope containing residues 56-60 of SEQ ID NO: 7 within human TNFR2 (KCSPG) (human).
T2 construct: Motif within CRD1 of TNFR2
T2 peptide: KCSPG
The experiment in a line: epitope mapping analysis (peptide ELISA). Background: An ELISA detects its analyte on a solid surface through an enzyme-linked reagent.

B1: TNFRAB1 (antibody, V domains shown)
VH: EVQLQESGGGLVKPGGSLKLSCAASGFTFSSYVMSWVRQTPEKRLEWVATISSGGSYTYYPDSVKGRFTISRDNAKNTLYLQMSSLRSEDTAMYYCARQRVDGYSSYWYFDVWGAGTAVTVSS
VL: DIVLTQSPAIMSASPGEKVTITCSASSSVYYMYWFQQKPGTSPKLWIYSTSNLASGVPVRFSGSGSGTSYSLTISRMEAEDAATYYCQQRRNYPYTFGGGTKLEIKR
notes: Murine monoclonal antibody with two heavy and two light chains; also called antagonistic TNFR2 antibody TNFRAB1
In the case of B1, in assay [1], the Kd was approximately 0.0444 nM, the koff is 0.000221 s⁻¹ and the kon was 4.98e+06 M⁻¹ s⁻¹. In addition, the binding result in assay [2] was “no binding”.
